According to the supplement of paper PMC10567573:

B1: CHCHD3 (parent)
chain: YSGAYGASVSDEELKRRVAEELAL
B2: VPS39 (parent)
chain: TTLLKCYLHTNVALVAPLLRLENN

Variants of: B1
Test: protein stability index of a GFP-peptide fusion (GPS, HEK-293T) (PSI 1-6); higher = more stable
Conditions: c terminus: a fixed tail appended
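Note: lentivirally expressed fusions sorted by FACS into six bins by GFP to DsRed ratio, PSI derived from sequencing read proportions per bin multiplied by bin number.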

Protein stability index, by site and new letter:
A19: I 2.49 | K 2.47 | L 3.05 | M 3.43 | N 3.53 | P 3.04 | Q 2.56 | R 2.95 | S 2.05 | T 1.94 | V 3.43 | W 2.69 | Y 2.27
E20: A 2.19 | C 2.48 | D 3.01 | F 1.99 | G 1.58 | H 2.59 | I 2.4 | K 2.9 | L 2.22 | M 2.16 | N 2.15 | P 2.49 | Q 2.68 | R 2.49 | S 3.03 | T 2.26 | V 1.57 | W 1.85 | Y 2.27
E21: A 2.94 | C 3.9 | D 2.45 | F 2.44 | G 3.32 | H 2.44 | I 2.12 | K 2.88 | L 2.87 | M 3.14 | N 2.9 | P 3.47 | Q 3.05 | R 2.89 | S 3.57 | T 2.33 | V 2.19 | W 2.62 | Y 2.45
L22: A 2.5 | C 2.57 | D 2.75 | E 2.7 | F 1.59 | G 2.33 | H 2.05 | I 2.7 | K 2.19 | M 2.87 | N 3.21 | P 2.47 | Q 2.77 | R 3.32 | S 2.4 | T 3.26 | V 3.58 | W 1.89 | Y 1.94
A23: C 3.08 | D 2.76 | E 2.86 | F 2.97 | G 3.02 | H 2.71 | I 2.52 | K 2.71 | L 2.72 | M 2.65 | N 2.97 | P 3.31 | Q 2.58 | R 2.26 | S 2.19 | T 3.13 | V 2.55 | W 2.87 | Y 2.7
L24: A 2.62 | C 2.79 | D 2.52 | E 2.92 | F 1.77 | G 2.96 | H 2.31 | I 2.46 | K 2.87 | M 2.74 | N 2.54 | P 2.27 | Q 2.63 | R 2.52 | S 2.31 | T 2.48 | V 2.37 | W 2.33 | Y 2.5

Variants of: B2
Test: as above
Conditions: c terminus: a fixed tail appended

Protein stability index: each site, then its substitutions
L21: T 2.9 | I 2.16 | S 1.63 | P 2.73 | W 2.05 | F 3.04 | H 1.51 | D 1.59 | K 1.74 | C 3.59 | Q 2.14 | N 3.2 | G 1.6 | M 3.38 | Y 1.84
E22: R 2.64 | S 2.82 | D 2.71 | L 2.73 | N 2.13 | H 2.49 | A 1.66 | K 1.79 | W 1.4 | I 1.99 | C 1.92 | M 2.31 | V 1.69
L4: P 1.74 | M 3.92 | W 1.78 | D 1.35 | G 3.33 | H 2.36 | Q 1.92 | T 2.83 | V 3.82 | K 2.01 | N 1.25 | S 3.47 | F 3.81 | R 2.48
L3: R 2.57 | Y 3.01 | Q 3.31 | T 2.58 | W 3.19 | I 2.18 | A 3.88 | G 1.84 | P 1.96 | K 2.1 | D 2.22 | N 3.03
L8: W 2.17 | K 1 | V 2.7 | G 1.57 | T 2.5 | Q 2.14 | R 2.35 | A 2.49 | D 1.75 | F 4.45 | I 3.7 | C 1.07 | M 4.41 | N 1.98 | S 1.44 | E 1.85 | P 1.13 | H 1.82
V15: I 2.17 | N 2.07 | W 2.17 | T 2.11 | F 2.62 | E 1.35 | H 2.17 | P 3.16 | C 1.65 | R 1.85 | D 1.31
T10: L 2.35 | G 3.27 | W 1.94 | Y 2.73 | H 2.79 | E 1.46 | R 3.11
T1: C 1.07 | Y 3.27 | K 3.52 | A 3.76 | M 2.75 | I 2.46
L14: E 1.57 | Y 3.67 | F 1.55 | M 2.27 | H 3.13 | N 2.16 | P 1.9 | A 2.83 | Q 1.68 | I 3.28 | D 1.5 | T 2.5 | V 2.25
N11: Q 4.1 | D 4 | H 3.65 | I 1.85 | K 2.86 | C 2.59 | G 1.33
C6: A 1.25 | T 2.56 | P 2.19 | I 1.15 | K 2.11 | Q 3.64 | L 3.27 | E 2.38
L18: E 1.55 | P 2.27 | F 2.06 | M 3.28 | T 2.51 | Y 2.16 | K 2.08
N23: Q 3.88 | L 2.85 | A 2.22 | R 2.37 | Y 2.99 | M 2.81 | I 2.67 | V 2.67 | T 2.32 | K 2.27 | W 1.88 | H 2.29 | C 2.8 | F 2.11
A16: P 3.28 | G 2.87 | H 3.78 | D 3.39 | T 2.94 | E 2.57 | M 2.02 | S 5.08 | N 2.16 | W 1.72 | R 2.05
L19: W 2.61 | P 1.52 | E 2.02 | T 2.11 | Q 1.46 | V 2.79 | G 1.97 | C 1.35 | D 2.11 | H 1.7
V12: D 1.97 | F 2.91 | N 2.06 | K 1.45 | S 3.9 | Q 1.95 | T 3.04
T2: Q 2.1 | R 2.85 | A 1.61 | L 3.5
R20: K 3.52 | G 2.65 | W 2.11 | P 3.33 | V 2.63 | I 3.11 | Y 3.2 | E 1.83 | D 2.23 | T 3.38 | M 1.5
K5: H 2.48 | T 2.57 | F 1.07 | S 4.1 | P 1.88 | N 2.49
A13: K 2.63 | M 2.14 | V 3.55 | D 1.36 | R 1.57 | P 2.2 | W 3.55
Y7: V 2.59 | F 2.26 | P 1.7 | D 2.27 | E 1.73 | S 3.15 | R 1.76 | N 2.9 | H 3.18
H9: T 3.1 | Y 1.63 | N 3.08 | F 2.82 | P 1.59
N24: D 2.7 | K 2.08 | C 3.2 | I 2.02 | L 3.19 | H 3.11 | V 1.5
P17: L 2.13 | E 4.79 | R 1.38 | M 1.17
